Experimental data: paper PMC4610412

Legend:
[1] = target: FFpSPR; assay: NMR titration; conditions: phospho-S3 of peptide
[2] = target: trans-locked inhibitor; assay: NMR titration; conditions: phospho-S3, trans-locked alkene isostere
[3] = target: pCdc25C (Homo sapiens); assay: NMR titration; conditions: phospho-T5 of peptide (pT48)
[4] = target: pCdc25C (Homo sapiens); assay: ITC; conditions: phospho-T5 of peptide (pT48)

B1: Pin1 (WW domain site, full-length Pin1) WW, Q13526 (peptide)
chain: ADEEKLPPGWEKRMSRSSGRVYYFNHITNASQWERPSGNSS
Question: What does the source list for B1?
Answer: Kd [1]: 43 µM; Kd [2]: 53 µM; Kd [3]: 6 µM

B2: Pin1 WW domain (isolated) WW, Q13526 (peptide)
chain: B1 chain
Question: For B2, which Kd [4] is on record?
Answer: The Kd was 13 µM.
